Data on nine molecules can be found in patent US20230374147A1 (HUMMINGBIRD BIOSCIENCE PTE, published 2023).

Residue numbers refer to the chain shown, from its start.

Assay [1] has as its target T1, Human HER3-His (Sino Biological, 10201-H08H) (human, UniProt P21860 20-643).
T1 construct: Specificity control; also called Human HERS-His
The assay is described as follows: ELISA, coated His-tagged antigen.

Assay [2] concerns the target T2, His-tagged cynomolgous macaque BCMA (Acro Biosystems, BCA-C52H7) (cynomolgus macaque, UniProt Q02223 1-54 (human entry)).
T2 construct: Bought protein; also called cyno BCMA; CyBCMA; not shown: His tag
The assay can be described thus: ELISA, coated Cyno BCMA-His. (In general: In an ELISA, binding on a coated surface is turned into a signal by an enzyme label.)

Assay [3] deals with T3, Cyno TACI-His (Sino Biological, 90976-C08H) (cynomolgus macaque, UniProt G7PTR7 1-165).
T3 construct: Bought protein; also called cynomolgous macaque TACI; CyTACI
T3 sequence: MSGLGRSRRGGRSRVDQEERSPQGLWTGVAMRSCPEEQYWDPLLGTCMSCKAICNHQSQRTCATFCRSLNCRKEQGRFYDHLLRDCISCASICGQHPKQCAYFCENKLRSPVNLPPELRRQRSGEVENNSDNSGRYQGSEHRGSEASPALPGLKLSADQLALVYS
The assay can be described thus: ELISA, coated Cyno TACI-His.

Assay [4] has as its target T4, Human BCMA-His (Sino Biological, 10620-H08H) (human, UniProt Q02223 1-54).
T4 construct: not shown: His tag
T4 sequence: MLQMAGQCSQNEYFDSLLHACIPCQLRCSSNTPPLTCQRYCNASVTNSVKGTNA
The assay is described as follows: ELISA, coated Human BCMA-His.

Assay [5] has as its target T5, recombinant his-tagged human TACI (Sinobiological cat #11937-H08H) (human, UniProt O14836 1-165).
T5 construct: Bought protein; also called Human TACI-His; huTACI; not shown: His tag
T5 sequence: T3 sequence with S21F, A52T, T64A, N70S, R77K, S139L, L160V
The assay is described as follows: ELISA, coated Human TACI-His.

For assay [6], the target named is T6, human BCMA expressed on cells (human, UniProt Q02223 1-184).
T6 construct: the cell line is named under assay; also called wildtype human BCMA
T6 sequence: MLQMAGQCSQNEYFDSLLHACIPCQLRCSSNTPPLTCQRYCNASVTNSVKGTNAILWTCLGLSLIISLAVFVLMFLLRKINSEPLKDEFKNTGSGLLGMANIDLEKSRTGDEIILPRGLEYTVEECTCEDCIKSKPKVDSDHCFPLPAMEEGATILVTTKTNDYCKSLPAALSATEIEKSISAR
The assay is described as follows: flow cytometry, H929 cells (BCMA+). For orientation: In flow cytometry, cells or beads pass a laser one at a time.

The target in assay [7] is T7, His-tagged human BCMA (Acro Biosystems, Cat. #BCA-H522y) (human, UniProt Q02223 1-54).
T7 construct: also called huBCMA; P1; not shown: His tag
T7 sequence: T4 sequence
The assay can be described thus: BLI, IgG on HFC tip, His-tagged human BCMA 300-37.5 nM. In general terms: Biolayer interferometry detects binding as a change in optical thickness at a sensor tip.

The target in assay [8] is T5, recombinant his-tagged human TACI …. The assay is described as follows: BLI, IgG on HFC tip, His-tagged human TACI 300-37.5 nM.
The target in assay [9] is T2, His-tagged cynomolgous macaque BCMA …. The assay can be described thus: BLI, IgG on HFC tip, His-tagged cynomolgus BCMA 300-37.5 nM.
The target in assay [10] is T3, Cyno TACI-His (Sino Biological, …). The assay can be described thus: BLI, IgG on HFC tip, His-tagged cynomolgus TACI 300-37.5 nM.
In assay [11] the target is T6, human BCMA expressed on cells. The assay can be described thus: flow cytometry, fixed RPMI 8226 cells (BCMA+, TACI+: the cells carry both targets).
Assay [12] concerns the target T7, His-tagged human BCMA (Acro Biosystems, …). The assay is described as follows: ELISA, hybridoma supernatant, coated His-tagged antigen.
Assay [13] has as its target T2, His-tagged cynomolgous macaque BCMA …. The assay is described as above.
Assay [14] addresses T7, His-tagged human BCMA (Acro Biosystems, …). The assay is described as follows: ELISA, IgG purified from hybridoma supernatant, coated His-tagged antigen.
Assay [15] concerns the target T6, human BCMA expressed on cells. The assay can be described thus: flow cytometry, hybridoma supernatant, HEK293T cells stably expressing human BCMA.
Assay [16] has as its target T8, His-tagged mouse BCMA (Acro Biosystems, BCA-M52H3) (mouse, UniProt O88472 1-49).
T8 construct: Bought protein; not shown: His tag
T8 chain: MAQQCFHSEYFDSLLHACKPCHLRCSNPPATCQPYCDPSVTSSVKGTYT
The assay is described as follows: ELISA, hybridoma supernatant, coated His-tagged antigen.

B1: 1C8-402 hIgG1 (antibody)
heavy: not shown
light: DIQMTQSPSSLSASVGDRVTITCRASQDISNYLSWYQQKPGKAPKLLMRYTSRLHSGVPSRFSGSGSGTDFTLTISSLEQEDFATYYCQQGNLFPPTFGGGTKVEIKRTVAAPSVFIFPPSDEQLKSGTASVVCLLNNFYPREAKVQWKVDNALQSGNSQESVTEQDSKDSTYSLSSTLTLSKADYEKHKVYACEVTHQGLSSPVTKSFNRGEC
notes: also called [90]
For the molecule B1, the binding result in assay [1] is “no binding (tested: 3 µg/ml (highest concentration))”. In addition, the EC50 in [2] is 0.002 nM; in [3], 0.004 nM; in assay [4], 0.11 nM; in assay [5] it was 0.02 nM; in [6] it was 0.128 nM; in assay [11] it was 0.000136 µM. The Kd in assay [7] amounted to 0.000791 µM; in [8] it was 0.0702 µM; in [9], 0.0024 µM; in [10], 0.00259 µM. Also, the off-rate (koff) came out at 0.00312 s⁻¹ in assay [7], 0.0576 s⁻¹ in assay [8], 0.00272 s⁻¹ in assay [9] and 0.00186 s⁻¹ in [10]. Also, the kon in [7] stood at 3.95e+06 M⁻¹ s⁻¹; in assay [8], 821000 M⁻¹ s⁻¹; in assay [9] it was 1.13e+06 M⁻¹ s⁻¹; in [10], 718000 M⁻¹ s⁻¹.

B2: 1C8-507 hIgG1 (antibody, V domains shown)
VH: QVQLVQSGAEVKKPGASVKVSCKASGYTFRNYVMHWVKQKPGQGLEWMGWILPYNDGTKYAQKFQGKVTMTSDKSTSTVYMELSSLTSEDTAVYYCARYDYEGSFDYWGQGTLVTVSS
VL: DIQMTQSPSSLSASVGDRVTITCRASQDISNYLNWYQQKPGKAPKLLMRYTSLLHSGVPSRFSGSGSGTDFTLTISSLEQEDFATYYCQQGNTFPPTFGGGTKVEIKR
notes: also called [92]; hu1C8-507
For the molecule B2, in assay [1], the binding result is on record as “no binding (tested: 3 µg/ml (highest concentration))”. The concentration for a half-maximal effect (EC50) is 0.038 nM in assay [2]; 0.011 nM in assay [3]; 0.087 nM in assay [4]; 0.021 nM in [5]; 0.095 nM in assay [6]; 0.000136 µM in assay [11]. Besides, the dissociation constant (Kd) in [7] worked out at 0.0591 µM; in [8], 0.61 µM; in assay [9], 0.0217 µM. Besides, the koff in [7] was determined as 0.00172 s⁻¹; in [8], 0.163 s⁻¹; in assay [9] it was 0.0354 s⁻¹. The results for the kon in assay [7], in assay [8] and in assay [9] were 29200 M⁻¹ s⁻¹, 267000 M⁻¹ s⁻¹ and 1.63e+06 M⁻¹ s⁻¹, respectively.

B3: 1C8-403 hIgG1 (antibody, V domains shown)
VH: B2 VH with R30T, W50Y, Y101W
VL: B2 VL with Q27S, R49C, L53R
notes: also called [91]; hu1C8-403
As for B3, the binding result in assay [1] is given as “no binding (tested: 3 µg/ml (highest concentration))”. The EC50 in assay [2] was 0.016 nM; in [3] it was 0.034 nM; in [4], 0.062 nM; in assay [5], 0.051 nM; in [6] it was 0.134 nM; in assay [11], 0.000172 µM. Also, the dissociation constant Kd in [7] turned out to be 0.0586 µM; in assay [8], 1100 µM; in [9], 0.00654 µM. In addition, the koff in assay [7] was 0.00288 s⁻¹; in [8], 0.131 s⁻¹; in assay [9], 0.00917 s⁻¹. Further, the figures for the kon in [7], in assay [8] and in assay [9] were 49200 M⁻¹ s⁻¹, 118 M⁻¹ s⁻¹ and 1.4e+06 M⁻¹ s⁻¹, respectively.

B4: 539-SP5-D7 (antibody produced by the hybridoma) (antibody, V domains shown)
VH: EVMLVDSGGNLVKPGGSLKLSCAASGFTFSNYVISWVRQTPEKRLEWVATISTVGTNTYYPDSVRGRFTISRDNAENTLYLQMSSLRSEDTAIYYCSRHKYGYDDPSYAMDYWGQGTSVTVSS
VL: QLVLTQSSSASFSLGASAKLTCTLSSQHSTYTIEWYQQQPLKPPKYVMELKKDGSHSTGDGIPDRFSGSSSGADRYLSISNIQAEDEAIYICGVGDTVKEQFVYVFGGGTKVTVL
notes: Mouse antibody from B cell hybridoma (culture supernatant or IgG purified from it)
Consider B4, for which the “ELISA values (OD 450 nm)” value in [12] stood at 0.817 OD; in [13], 0.252 OD. For the same molecule, the midpoint of the response in assay [14], the EC50, lay at 0.0335 µg/mL. For the same molecule, the “% Parent (percent positive cells)” value in [15] was 76.2%.

B5: 552-LN2-E6 (antibody produced by the hybridoma) (antibody, V domains shown)
VH: QIQLVQSGPELKKPGETVKISCMASGYTFTDYSVRWVKQAPGKGLEWMGWINTETGEPTYADDFKGRFAFSLETSASTAYLQINNLKNEDTATYFCAISYYYALDYWGHGTSVTVSS
VL: DIVLTQSPASLTVSLGQRATISCRASKSVSTSVYSFLHWYQQKPGQPPKLLIYLASNLESGVPARFSGSGSGTDFTLNIHPVEEEDAATYYCQHSRELPRTFGGGTKLEIK
notes: as for B4
Turning to B5, the “ELISA values (OD 450 nm)” value in assay [12] was 0.832 OD; in assay [13], 0.729 OD; in assay [16], 0.002 OD. This molecule also registered an EC50 in assay [14] of 0.0505 µg/mL. In addition, the “% Parent (percent positive cells)” value in [15] is 60.8%.

B6: 552-LN2-F8 (antibody produced by the hybridoma) (antibody, V domains shown)
VH: QIQLVQSGPELKKPGETVKISCKASGYTFTDYTMYWVKQAPGKGLKWMGWINTETGEPTYADDFKGRFVFSLETSANTAYLQINNLKNEDTATYFCAISYYYGMDYWGQGTSVTVTS
VL: B5 VL with V3I, T12A, S22T, V33G, S35N, L37V, H38Y
notes: as for B4
For the molecule B6, the “ELISA values (OD 450 nm)” value in assay [12] was found to be 0.884 OD; in [13], 1.83 OD; in assay [16] it was 0.001 OD. This molecule showed an EC50 in assay [14] of 0.0585 µg/mL. The “% Parent (percent positive cells)” value in assay [15] came to 73.8%.

B7: 552-LN1-F4 (antibody produced by the hybridoma) (antibody, V domains shown)
VH: B5 VH with D62H, N88D, A92S
VL: B5 VL with V33G, S35N, V62A
notes: as for B4
In the case of B7, the “ELISA values (OD 450 nm)” value stood at 0.845 OD in assay [12], 1.89 OD in assay [13] and 0.006 OD in assay [16]. Moreover, the EC50 in assay [14] came out at 0.037 µg/mL. For the same molecule, in assay [15], the “% Parent (percent positive cells)” value is 66.4%.

B8: 552-LN1-E9 (antibody produced by the hybridoma) (antibody, V domains shown)
VH: B6 VH with T33S, M34I, V69A, N77S, T78S, N85T, A97S, G103A, T116S
VL: B5 VL with T12A, V33G, L54F
notes: as for B4
On to B8, for which the results for the “ELISA values (OD 450 nm)” value in assay [12], in [13] and in assay [16] were 0.836 OD, 2.07 OD and 0.017 OD, respectively. This molecule also gave an EC50 in assay [14] of 0.071 µg/mL. The “% Parent (percent positive cells)” value in assay [15] worked out at 75.4%.

B9: 539-SP2-H3 (antibody produced by the hybridoma) (antibody, V domains shown)
VH: EVQLQQSGPELVKPGASVKMSCKASGYTFTSYVIHWVKQKPGQGLEWIGYVLPYNDVIKYNEKFKGKATLTSDKSSSTAYMDLSSLTSEDSAVYYCARWGDFDEGIWFPYWGQGTLVTVSA
VL: DVLMTQTPLSLPVSLGDHASVSCRSSQSIVHTDGNTYLEWYLQKPGQSPKLLIYKVSNRFSGVPDRFSGSGSGTDFTLKISRVEAEDLGVYYCFQGSHVPWTFGGGTKLEIK
notes: as for B4
On to B9, for which the “ELISA values (OD 450 nm)” value amounted to 0.813 OD in [12], 0.669 OD in assay [13] and 0.542 OD in assay [16]. In assay [14], this molecule yielded an EC50 of 0.152 µg/mL. Also, the “% Parent (percent positive cells)” value in [15] worked out at 74.3%.

What is called EC50 is the concentration that produces a half-maximal response. The term Kd denotes the constant that tells how readily two partners part at equilibrium. In general, koff refers to a measure of how fast the partners let go of each other. As a reminder, the kon is a measure of how fast the partners come together.
